T1: TIGIT on TIGIT effector cells (UniProt Q495A1 22-244, limits assumed)
T1 sequence (looked up): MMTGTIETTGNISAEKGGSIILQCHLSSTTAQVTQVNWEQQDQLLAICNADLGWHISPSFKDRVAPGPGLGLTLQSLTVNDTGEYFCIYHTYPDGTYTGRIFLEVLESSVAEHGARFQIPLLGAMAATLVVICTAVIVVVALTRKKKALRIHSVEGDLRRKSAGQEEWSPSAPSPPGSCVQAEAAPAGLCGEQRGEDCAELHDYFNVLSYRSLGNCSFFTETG

T2: mouse TIGIT-His protein (Acrobiosystems) (mouse, UniProt P86176 29-148, limits assumed)
T2 construct: bought
T2 sequence (looked up): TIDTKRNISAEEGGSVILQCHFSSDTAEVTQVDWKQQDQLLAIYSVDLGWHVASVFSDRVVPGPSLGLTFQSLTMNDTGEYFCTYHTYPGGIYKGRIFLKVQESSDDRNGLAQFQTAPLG

T3: human TIGIT expressed on CHO-K1 cells (human, UniProt Q495A1 22-244)
T3 construct: also called CHO/human TIGIT cells; CHO-TIGIT cells
T3 sequence: T1 sequence (looked up)

T4: TIGIT on activated primary human T cells (human, UniProt Q495A1)
T4 sequence (receptor, looked up): T1 sequence (looked up)

T5: human TIGIT-His protein (Acrobiosystems) (human, UniProt Q495A1 22-141)
T5 construct: Bought; Genbank NP_776160
T5 sequence: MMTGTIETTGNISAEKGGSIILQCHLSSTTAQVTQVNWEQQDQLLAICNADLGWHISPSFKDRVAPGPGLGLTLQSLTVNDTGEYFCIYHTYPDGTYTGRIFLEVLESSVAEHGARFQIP

B1: BTP-11 (bispecific antibody, human IgG4 S228P, kappa)
heavy: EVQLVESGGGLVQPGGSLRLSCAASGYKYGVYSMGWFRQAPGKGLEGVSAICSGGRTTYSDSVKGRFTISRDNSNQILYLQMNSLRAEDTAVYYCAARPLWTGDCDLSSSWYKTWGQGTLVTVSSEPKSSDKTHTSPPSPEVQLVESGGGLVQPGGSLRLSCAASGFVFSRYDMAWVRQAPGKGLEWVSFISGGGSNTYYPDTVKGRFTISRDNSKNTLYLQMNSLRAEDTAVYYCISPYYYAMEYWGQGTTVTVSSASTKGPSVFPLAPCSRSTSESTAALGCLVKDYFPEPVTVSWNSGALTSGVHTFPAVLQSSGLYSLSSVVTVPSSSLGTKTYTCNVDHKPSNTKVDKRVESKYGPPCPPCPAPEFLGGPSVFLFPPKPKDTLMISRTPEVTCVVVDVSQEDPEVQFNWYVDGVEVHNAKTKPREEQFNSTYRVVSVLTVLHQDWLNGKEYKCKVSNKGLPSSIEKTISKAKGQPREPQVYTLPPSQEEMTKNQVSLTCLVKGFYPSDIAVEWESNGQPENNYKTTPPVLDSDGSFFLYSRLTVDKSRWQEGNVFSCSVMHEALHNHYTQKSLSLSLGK
light: DIQMTQSPSSVSASVGDRVTITCKASQDVDTAVAWYQQKPGKAPKLLIYWASTRHTGVPSRFSGSGSGTDFTLTISSLQPEDFATYYCQQYSTFPWTFGGGTKVEIKRTVAAPSVFIFPPSDEQLKSGTASVVCLLNNFYPREAKVQWKVDNALQSGNSQESVTEQDSKDSTYSLSSTLTLSKADYEKHKVYACEVTHQGLSSPVTKSFNRGEC
notes: AS19584VH28 - mutated hIgG1 hinge - PD1-BM-min heavy chain (IgG4); also called BTP-11 (IgG4); PD-1×TIGIT BABP
B2: Tiragolumab (antibody, human IgG1, kappa, V domains shown)
VH: EVQLQQSGPGLVKPSQTLSLTCAISGDSVSSNSAAWNWIRQSPSRGLEWLGKTYYRFKWYSDYAVSVKGRITINPDTSKNQFSLQLNSVTPEDTAVFYCTRESTTYDLLAGPFDYWGQGTLVTVSS
VL: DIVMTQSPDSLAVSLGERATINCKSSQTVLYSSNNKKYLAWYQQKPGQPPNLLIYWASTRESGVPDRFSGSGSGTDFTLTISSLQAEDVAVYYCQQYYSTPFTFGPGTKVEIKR
notes: also called Tiragolumab (anti-TIGIT)
B3: AS19584VH28-Fc fusion protein with effectorless human IgG1 (inert hIgG1) Fc (Fc fusion)
chain: EVQLVESGGGLVQPGGSLRLSCAASGYKYGVYSMGWFRQAPGKGLEGVSAICSGGRTTYSDSVKGRFTISRDNSNQILYLQMNSLRAEDTAVYYCAARPLWTGDCDLSSSWYKTWGQGTLVTVSSAPELLGGPSVFLFPPKPKDTLMISRTPEVTCVVVDVSHEDPEVKFNWYVDGVEVHNAKTKPREEQYASTYRVVSVLTVLHQDWLNGKEYKCKVSNKALPAPIEKTISKAKGQPREPQVYTLPPSREEMTKNQVSLTCLVKGFYPSDIAVEWESNGQPENNYKTTPPVLDSDGSFFLYSKLTVDKSRWQQGNVFSCSVMHEALHNHYTQKSLSLSPGK
notes: built from the sdAb and the inert IgG1 Fc region it names; also called AS19584VH28 (inert IgG1); AS19584VH28 inert IgG1

Assays:
[1] = target: T6, PD-1 expressed on cells (UniProt Q15116 25-288, limits assumed); test: FACS competition, PD-L1 binding to CHO-PD-1 cells
T6 construct: whole, on cells; also called CHO-PD-1 cells; PD-1 effector cells

[2] = target: T6, PD-1 expressed on cells; test: FACS, CHO-PD-1 cells
[3] = target: T6, PD-1 expressed on cells; test: cell-based or functional assay
[4] = target: T1, TIGIT on TIGIT effector cells; test: cell-based or functional assay
[5] = target: T7, human PD-1 (Acrobiosystems) (human, UniProt Q15116 25-167); test: SPR as in Example 2
T7 construct: bought
Method: (§1) BIAcore T200 instrument was utilized to determine affinity constant (KD) of each anti-TIGIT sdAb-Fc fusion protein by SPR. […] Anti-TIGIT sdAb-Fc fusion proteins were injected at no less than 5 different concentrations.

[6] = target: T2, mouse TIGIT-His protein (Acrobiosystems); test: SPR as in Example 2
Method: as §1

[7] = target: T3, human TIGIT expressed on CHO-K1 cells; test: FACS competition, CD155 binding to CHO-TIGIT cells
Method: (§2) To determine cell binding EC₅₀, CHO—K1 cells expressing human, cynomolgus or murine TIGIT were harvested and incubated with gradient concentrations of anti-TIGIT sdAb-Fc fusion proteins, followed by fluorophore-labeled secondary antibodies against human Fc. […] Samples were analyzed with flow cytometry.

[8] = target: T3, human TIGIT expressed on CHO-K1 cells; test: FACS, CHO-TIGIT cells
Method: as §2

[9] = target: T4, TIGIT on activated primary human T cells; test: FACS binding to activated, expanded primary human CD4+ T cells isolated from PBMCs; the sheet names only the cells, target by the binder's specificity as named in the filing (anti-TIGIT)
[10] = target: T4, TIGIT on activated primary human T cells; test: FACS binding to activated, expanded primary human CD8+ T cells isolated from PBMCs; the sheet names only the cells, target by the binder's specificity as named in the filing (anti-TIGIT)
[11] = target: T1, TIGIT on TIGIT effector cells; test: cell-based or functional assay; remark: listed apart in the source
[12] = target: T5, human TIGIT-His protein (Acrobiosystems); test: SPR as in Example 2
Method: as §1

T6 sequence (Q15116 25-288 limits assumed): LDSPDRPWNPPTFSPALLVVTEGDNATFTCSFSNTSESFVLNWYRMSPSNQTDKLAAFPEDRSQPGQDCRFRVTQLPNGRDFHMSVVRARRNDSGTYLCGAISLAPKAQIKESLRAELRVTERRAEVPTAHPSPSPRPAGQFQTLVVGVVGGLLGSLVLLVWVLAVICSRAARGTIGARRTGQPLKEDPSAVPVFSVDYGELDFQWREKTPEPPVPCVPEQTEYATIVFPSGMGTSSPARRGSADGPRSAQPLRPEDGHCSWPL
T7 sequence (Q15116 25-167 limits assumed): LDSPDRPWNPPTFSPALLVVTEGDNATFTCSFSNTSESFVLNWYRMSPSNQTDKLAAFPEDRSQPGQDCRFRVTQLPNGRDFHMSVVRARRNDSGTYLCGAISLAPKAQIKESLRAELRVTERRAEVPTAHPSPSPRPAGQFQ

Binder	EC50 [1] [nM]	EC50 [2] [nM]	PD-1 cell based assay EC50 [3] [nM]	TIGIT IL-2 release EC50 [4] [nM]	TIGIT Reporter assay EC50 [4] [nM]	Kd [5] [nM]	Kd [6] [nM]	EC50 [7] [nM]	EC50 [8] [nM]	EC50 [9] [nM]	EC50 [10] [nM]	PD-L1/TIGIT bifunctional reporter assay: EC50 [11] [nM]	PD-L1/TIGIT bifunctional reporter assay: Upper plateau of signal [11]	Kd [12] [nM]
B1	8.68	6.31	8.51	0.778	7.81	4	0.5							
B2					11.4			2.42	2.24	0.403	1.41	3.61	983	
B3					5.42		1.1			0.107	0.174	10.6	1610	0.36
